{"source": "paper PMC2702006", "about": "(The Febs Journal, 2009)", "proteins": {"B1": {"name": "human Hsp90β L24R (natural protein)", "chain": "not shown"}, "B2": {"name": "human Hsp90β T110I (natural protein)", "chain": "not shown"}, "B3": {"name": "pyrene-labelled human Hsp90β E20C-C366A-A116N (natural protein)", "chain": "not shown", "modifications": "N-(1-pyrene)-maleimide label at position 20 (E20C)"}, "B4": {"name": "human Hsp90β A116N (natural protein)", "chain": "not shown"}}, "key": {"[1]": {"molecular_target": "the molecule itself", "assay": "cell-based or functional assay"}, "[2]": {"molecular_target": "the molecule itself", "assay": "cross-linking"}, "[3]": {"molecular_target": "the molecule itself", "assay": "FRET or BRET"}}, "data": [{"protein": "B1", "values": [{"measurement": "ATPase activity relative to wild-type Hsp90β", "setting": "[1]", "value": "6.2 % activity relative to wild-type Hsp90β"}]}, {"protein": "B2", "values": [{"measurement": "binding result", "setting": "[2]", "value": "binds"}]}, {"protein": "B3", "values": [{"measurement": "binding result", "setting": "[3]", "value": "binds"}]}, {"protein": "B4", "values": [{"measurement": "binding result", "setting": "[2]", "value": "binds"}]}]}
